Source: patent publication US20020039999A1

Biological target: opioid receptors of rat brain homogenate ([3H]-Naloxone binding sites)
Assay: [3H]-Naloxone (1.0 nM) displacement, rat brain homogenate, filtration

Q: How did the % inhibition at 0.1 nM turn out when Dynorphin A 1-13-NH2 (peptide) was run?
A: 2.76%

Q: What about the % inhibition at 10 nM of the same substance?
A: 9.89%

Q: And the % inhibition at 1000 nM?
A: 91.8%

Q: Which % inhibition at 0.1 nM does the source give for Dynorphin A 2-13-NH2 (peptide) here?
A: 1.66%

Q: What about the % inhibition at 10 nM of the same substance?
A: -0.19%

Q: And the % inhibition at 1000 nM?
A: 44.1%

Q: Which % inhibition at 0.1 nM does the source give for Dynorphin A 2-17-NH2 (peptide) here?
A: -3.21%

Q: And the % inhibition at 10 nM?
A: 4.87%

Q: And the % inhibition at 1000 nM?
A: 12.7%

Q: How did the % inhibition at 0.1 nM turn out when “Human serum albumin (HSA) (from UniProt P02768 25-609)” was run?
A: -0.6%
